Common to all, as to assay: SPR
Assay [1] deals with RpfG-MBP (Lysobacter enzymogenes).
The target in assay [2] is HtsH3C-Myc-His (cytoplasmic fragment of HtsH3) (Lysobacter enzymogenes).
For assay [3], the target named is HtsH2C-HA-His (cytoplasmic fragment of HtsH2) (Lysobacter enzymogenes).

With “HtsH1C-Flag-His (cytoplasmic fragment of HtsH1) (domain or fragment)”, the equilibrium dissociation constant (Kd) in assay [1] was found to be 0.0668 nM; in assay [2] it was 0.16 nM; in assay [3] it was 0.0962 nM.

Consider “HtsH2C-HA-His (cytoplasmic fragment of HtsH2) (domain or fragment)”, for which the results for the Kd in assay [1] and in assay [2] were 0.3 nM and 0.178 nM, respectively.

In assay [1], “HtsH3C-Myc-His (cytoplasmic fragment of HtsH3) (domain or fragment)” displayed a Kd of 0.168 nM.

The values above are taken from publication doi:10.1101/2020.07.13.201541.
